{"source": "patent US10942185B2", "about": "“Therapeutic and diagnostic methods for manipulating phagocytosis through calreticulin and low density lipoprotein-related receptor” (The Board of Trustees of the Leland Stanford Junior …, priority 2010, dated 2021)", "molecules": {"B1": {"name": "anti-CD47 antibody: blocking monoclonal anti-human CD47 antibody, clone B6H12.2, ATCC (antibody, V domains shown)", "VH": "EVQLVESGGDLVKPGGSLKLSCAASGFTFSGYGMSWVRQTPDKRLEWVATITSGGTYTYYPDSVKGRFTISRDNAKNTLYLQIDSLKSEDTAIYFCARSLAGNAMDYWGQGTSVTVSS", "VL": "DIVMTQSPATLSVTPGDRVSLSCRASQTISDYLHWYQQKSHESPRLLIKFASQSISGIPSRFSGSGSGSDFTLSINSVEPEDVGVYYCQNGHGFPRTFGGGTKLEIK"}, "B2": {"name": "exogenous CRT: recombinant CRT human protein (Thermo Scientific), adsorbs onto the cellular surface and directly binds LRP (protein, UniProt P27797 18-417, looked up)", "Calreticulin": "EPAVYFKEQFLDGDGWTSRWIESKHKSDFGKFVLSSGKFYGDEEKDKGLQTSQDARFYALSASFEPFSNKGQTLVVQFTVKHEQNIDCGGGYVKLFPNSLDQTDMHGDSEYNIMFGPDICGPGTKKVHVIFNYKGKNVLINKDIRCKDDEFTHLYTLIVRPDNTYEVKIDNSQVESGSLEDDWDFLPPKKIKDPDASKPEDWDERAKIDDPTDSKPEDWDKPEHIPDPDAKKPEDWDEEMDGEWEPPVIQNPEYKGEWKPRQIDNPDYKGTWIHPEIDNPEYSPDPSIYAYDNFGVLGLDLWQVKSGTIFDNFLITNDEAYAEEFGNETWGVTKAAEKQMKDKQDEEQRLKEEEEDKKRKEEEEAEDKEDDEDKDEDEEDEEDKEEDEEEDVPGQAKDEL"}}, "key": {"[1]": {"biological_target": "T1, Calreticulin on the cell surface of Molm 13 cells (Homo sapiens, UniProt P27797)", "T1 construct": "endogenous in cells; host or cells: Molm 13 (human AML cell line), treated with staurosporine", "T1 sequence (P27797 18-417)": "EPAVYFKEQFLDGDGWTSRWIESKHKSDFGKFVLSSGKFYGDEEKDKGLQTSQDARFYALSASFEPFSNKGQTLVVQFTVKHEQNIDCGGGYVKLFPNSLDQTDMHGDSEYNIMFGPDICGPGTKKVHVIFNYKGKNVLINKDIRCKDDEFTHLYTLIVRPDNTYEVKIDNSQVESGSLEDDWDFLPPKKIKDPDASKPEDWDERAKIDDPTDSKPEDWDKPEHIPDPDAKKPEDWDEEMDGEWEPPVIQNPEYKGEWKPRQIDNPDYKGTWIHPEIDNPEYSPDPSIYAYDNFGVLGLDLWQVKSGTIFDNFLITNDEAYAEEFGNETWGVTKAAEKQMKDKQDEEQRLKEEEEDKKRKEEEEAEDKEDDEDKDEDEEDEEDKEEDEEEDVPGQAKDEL", "test": "LRP1 cluster IV-Fc binding to staurosporine-treated Molm 13 cells, flow cytometry", "excerpt": "(§1) FIGS. 14A-14B. […] Live cells were stained with anti-calreticulin (CRT) antibody conjugated by a fluorophore. […] Live cells were stained with LRP1 cluster IV-Fc protein followed by a secondary anti-Fc antibody conjugated to a fluorophore."}, "Molm 13 cells": {"system": "Molm 13 cells", "test": "Cell surface calreticulin on staurosporine-treated Molm 13 cells, flow cytometry", "type": "cell-based, human", "conditions": "live cells, compared to isotype control", "excerpt": "as §1"}, "[2]": {"system": "primary human cancer cells", "test": "In vitro phagocytosis assay, primary human cancer cells with human macrophages", "type": "cell-based", "conditions": "two hours; for phagocytosis of primary human cancer cells, agent alone: compared to IgG1 isotype control", "protocol": "(§2) Given the known role of CRT as a pro-phagocytic signal, its correlation with CD47 expression (FIG. 2A), and its ability to be counteracted by CD47 (FIG. 2), we investigated whether the expression of cell surface CRT on cancer but not normal cells could explain the selective targeting of tumor cells by a blocking anti-CD47 antibody. In vitro phagocytosis assays were performed by incubating primary human normal cells or cancer cells with human macrophages in the presence of anti-CD47 antibody. CD47 was expressed on all normal and cancer cells profiled (FIG. 2A and FIG. 7, 9), but expression of calreticulin was primarily restricted to tumor cells (FIG. 1A,B). […] (FIG. 3C).\n(§3) Generation of human macrophages and in vitro phagocytosis assays were performed as previously described. Primary human samples or cell lines were incubated with 10 μg/ml IgG1 isotype control (Ebiosciences), 10 μg/ml anti-CD47 antibody (clone B6H12.2, ATCC), 4 μg/ml calreticulin blocking peptide (MBL International Corporation), 10 μg/ml RAP (Fitzgerald Industries International), or 125 μg/ml recombinant CRT human protein (Thermo Scientific). Per MBL, confirmation of blocking activity was performed by Western blot analysis, verified by incubation of an anti-CRT antibody with 5 times higher concentration of the peptide and performing a Western blot analysis to determine if the specific band had been diminished. Cells were then analyzed by fluorescence microscopy to determine the phagocytic index (number of cells ingested per 100 macrophages)."}, "[3]": {"system": "primary human normal cells", "test": "In vitro phagocytosis assay, normal human tissue cells with human macrophages", "type": "cell-based", "conditions": "several normal human tissue types, vs IgG1 isotype control", "protocol": "as §2\nas §3, with “Per MBL, confirmation of blocking activity was performed by Western blot analysis, verified by incubation of an anti-CRT antibody with 5 times higher concentration of the peptide and performing a Western blot analysis to determine if the specific band had been diminished.” left out"}, "NBM cells": {"system": "NBM cells", "test": "In vitro phagocytosis assay, human NBM cells with human macrophages", "type": "cell-based", "conditions": "vs vehicle or IgG1 isotype control", "excerpt": "Next, the relationship between the level of tumor cell surface CRT expression and level of phagocytosis by anti-CD47 antibody was investigated. Cell surface CRT expression on tumor cells positively correlated with the degree of anti-CD47 antibody mediated phagocytosis, regardless of tumor cell type (FIG. 3D). Finally, given that normal cells express minimal levels of cell surface CRT, we investigated whether the addition of CRT to the surface of these cells could enable phagocytosis.\nas §3"}}, "note": "“Also recorded” adds a separate entry of the source."}
{"molecule": "LRP1 cluster IV-Fc protein: LRP1 cluster IV fused to Fc, used to stain cell surface calreticulin", "values": [{"measurement": "binding to staurosporine-treated Molm 13 cells", "setting": "[1]; live cells, secondary anti-Fc antibody, flow cytometry", "value": "increase in the binding"}]}
{"molecule": "CN[C@@H]1C[C@H]2O[C@@](C)([C@@H]1OC)n1c3ccccc3c3c4c(c5c6ccccc6n2c5c31)C(=O)NC4", "note": "[staurosporine]", "values": [{"measurement": "cell surface calreticulin", "setting": "Molm 13 cells", "value": "increase in cell surface calreticulin"}]}
{"molecule": "RAP: receptor-associated protein (RAP), an inhibitor of LRP (Fitzgerald Industries International)", "values": [{"measurement": "blocking of LRP1 cluster IV-Fc protein binding", "setting": "[1]; staurosporine-treated Molm 13 cells", "value": "can be blocked"}, {"measurement": "anti-CD47 antibody-mediated phagocytosis of cancer cells", "setting": "[2]; in the presence of anti-CD47 antibody", "value": "completely abrogated in most cases; also recorded: completely abrogated anti-CD47 antibody-mediated phagocytosis"}, {"measurement": "phagocytosis of primary human cancer cells, agent alone", "setting": "[2]", "value": "did not enable phagocytosis"}, {"measurement": "phagocytosis of primary human cancer cells, agent alone", "setting": "[2]; listed as LRP", "value": "no effect on phagocytosis"}]}
{"molecule": "B1", "values": [{"measurement": "phagocytosis of normal human cells", "setting": "[3]", "value": "not phagocytosed; also recorded: No difference in phagocytosis"}, {"measurement": "phagocytosis of NBM cells", "setting": "NBM cells", "value": "did not; also recorded: No difference in phagocytosis"}, {"measurement": "phagocytosis of primary human cancer cells, agent alone", "setting": "[2]", "value": "robustly phagocytosed; also recorded: are phagocytosed; also recorded: enabled phagocytosis of cancer cells"}]}
{"molecule": "B2", "values": [{"measurement": "phagocytosis of NBM cells", "setting": "NBM cells", "value": "enabled phagocytosis of NBM cells; also recorded: enabled increased phagocytosis"}, {"measurement": "phagocytosis of NBM cells", "setting": "NBM cells; listed as Exogenous CRT", "value": "enabled increased phagocytosis of NBM cells"}]}
